B1: huF6-Fc fusion proteins binding with antigen (Fc fusion)
chain: EVQLVESGGGLVQPGGSLRLSCAASGSTLDSYTVAWVRQAPGKGLEWVSCASRSGASTNYANSVKGRFTISRDNSKNTVYLQMNSLRAEDTAVYYCAAYRNFGNFCVMGRYEYDEWGQGTLVTVSSEPKSSDKTHTCPPCPAPELLGGPSVFLFPPKPKDTLYITREPEVTCVVVDVSHEDPEVKFNWYVDGVEVHNAKTKPREEQYNSTYRVVSVLTVLHQDWLNGKEYKCKVSNKALPAPIEKTISKAKGQPREPQVYTLPPSREEMTKNQVSLTCLVKGFYPSDIAVEWESNGQPENNYKTTPPVLDSDGSFFLYSKLTVDKSRWQQGNVFSCSVMHEALHNHYTQKSLSLSPGK
B2: G1-Fc fusion proteins binding with antigen (Fc fusion)
chain: QVQLVESGGDLVQPGGSLTLACEASGFTISSTGMTWVRQAPGKELDWVGDINIPGTDTDYDISVKGRFTISKDHAKNTVYLQMTSLRPEDTAIYYCAKQGANLRQGVQSPGTLVTVSSEPKSSDKTHTCPPCPAPELLGGPSVFLFPPKPKDTLYITREPEVTCVVVDVSHEDPEVKFNWYVDGVEVHNAKTKPREEQYNSTYRVVSVLTVLHQDWLNGKEYKCKVSNKALPAPIEKTISKAKGQPREPQVYTLPPSREEMTKNQVSLTCLVKGFYPSDIAVEWESNGQPENNYKTTPPVLDSDGSFFLYSKLTVDKSRWQQGNVFSCSVMHEALHNHYTQKSLSLSPGK
B3: A3-Fc fusion proteins binding with antigen (Fc fusion)
chain: QVQLVESGGGLVQAGGSLTLSCVASGFTFSRHGMTWVRQAPGKELDYVGEINIPGDDVDYDISVKGRFTISRDNAKNTVYLHMTNLKVEDTATYWCAQAGENMRLVTRRQGTQVTVSTEPKSSDKTHTCPPCPAPELLGGPSVFLFPPKPKDTLYITREPEVTCVVVDVSHEDPEVKFNWYVDGVEVHNAKTKPREEQYNSTYRVVSVLTVLHQDWLNGKEYKCKVSNKALPAPIEKTISKAKGQPREPQVYTLPPSREEMTKNQVSLTCLVKGFYPSDIAVEWESNGQPENNYKTTPPVLDSDGSFFLYSKLTVDKSRWQQGNVFSCSVMHEALHNHYTQKSLSLSPGK
B4: huA3-Fc fusion proteins binding with antigen (Fc fusion)
chain: QVQLVESGGGLVQPGGSLRLSCAASGFTFSRHGMTWVRQAPGKGLEYVGEINIPGDDVDYDISVKGRFTISRDNAKNTLYLQMNSLRAEDTAVYYCARAGENMRLVTRGQGTLVTVSSEPKSSDKTHTCPPCPAPELLGGPSVFLFPPKPKDTLYITREPEVTCVVVDVSHEDPEVKFNWYVDGVEVHNAKTKPREEQYNSTYRVVSVLTVLHQDWLNGKEYKCKVSNKALPAPIEKTISKAKGQPREPQVYTLPPSREEMTKNQVSLTCLVKGFYPSDIAVEWESNGQPENNYKTTPPVLDSDGSFFLYSKLTVDKSRWQQGNVFSCSVMHEALHNHYTQKSLSLSPGK
B5: F6-Fc fusion proteins binding with antigen (Fc fusion)
chain: QVQLVESGGGLAQPGGSLRLSCEASGSTLDSYTVAWFRQAPGKEREGVSCASRSGASTNYANSVKGRFTISRDNAKNTVYLQMNSLKPEDTGVYYCAAYRNFGNFCVMGRYEYDEWGQGTQVTVSSEPKSSDKTHTCPPCPAPELLGGPSVFLFPPKPKDTLYITREPEVTCVVVDVSHEDPEVKFNWYVDGVEVHNAKTKPREEQYNSTYRVVSVLTVLHQDWLNGKEYKCKVSNKALPAPIEKTISKAKGQPREPQVYTLPPSREEMTKNQVSLTCLVKGFYPSDIAVEWESNGQPENNYKTTPPVLDSDGSFFLYSKLTVDKSRWQQGNVFSCSVMHEALHNHYTQKSLSLSPGK
B6: huG1-Fc fusion proteins binding with antigen (Fc fusion)
chain: QVQLVESGGGLVQPGGSLRLSCAASGFTISSTGMTWVRQAPGKGLEWVGDINIPGTDTDYDISVKGRFTISKDHAKNTVYLQMNSLRAEDTAVYYCAKQGANLRQGVQGQGTLVTVSSEPKSSDKTHTCPPCPAPELLGGPSVFLFPPKPKDTLYITREPEVTCVVVDVSHEDPEVKFNWYVDGVEVHNAKTKPREEQYNSTYRVVSVLTVLHQDWLNGKEYKCKVSNKALPAPIEKTISKAKGQPREPQVYTLPPSREEMTKNQVSLTCLVKGFYPSDIAVEWESNGQPENNYKTTPPVLDSDGSFFLYSKLTVDKSRWQQGNVFSCSVMHEALHNHYTQKSLSLSPGK

For this assay, the target named is Staphylococcus aureus alpha toxin (Staphylococcus aureus, UniProt P09616).
Sequence of Staphylococcus aureus alpha toxin (P09616 27-319 limits assumed): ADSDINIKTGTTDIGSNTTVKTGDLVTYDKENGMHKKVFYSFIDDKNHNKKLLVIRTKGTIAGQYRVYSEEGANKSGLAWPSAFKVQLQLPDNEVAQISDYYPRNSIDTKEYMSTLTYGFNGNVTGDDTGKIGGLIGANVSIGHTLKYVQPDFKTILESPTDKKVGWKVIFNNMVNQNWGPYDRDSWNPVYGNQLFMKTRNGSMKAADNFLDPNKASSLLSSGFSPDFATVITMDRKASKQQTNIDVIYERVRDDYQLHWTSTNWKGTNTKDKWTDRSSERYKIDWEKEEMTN
Consider B1, for which the EC50 (as a rule, the concentration at which the effect is half-maximal) was found to be 2.72 ng/mL. For B2, the half-maximal effective concentration (EC50) was 7 ng/mL. Against the preceding molecule, the EC50 is about 2.6-fold higher.

In turn, B3 displayed an EC50 of 9 ng/mL. The figure for B4 is 5.97 ng/mL; for B5 it is 3 ng/mL. For B6 the value was 6.35 ng/mL.

Values taken from US20240059764A1 (STARMAB BIOLOGICS SUZHOU, published 2024).
